Results reported in publication PMC2697320, “Identification of the high affinity binding site in the Streptococcus intermedius toxin intermedilysin for its membrane receptor, the human complement regulator CD59” (Molecular Immunology, 2009).

Molecular target: Human CD59 on human erythrocytes (human (endogenous in human erythrocytes)) (UniProt P13987)
Sequence (P13987 26-102): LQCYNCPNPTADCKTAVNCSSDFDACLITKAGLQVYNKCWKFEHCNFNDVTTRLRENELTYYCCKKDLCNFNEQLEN

In the case of ILY LI > TV mutant (natural protein), the fold increase of the dose required for 50% hemolysis of human erythrocytes against native ILY is reported as 2.5 fold.
